Results on one molecule are retold here after paper PMC3609803, “SipB-SipC Complex Is Essential for Translocon Formation” (PLoS ONE, 2013).

This assay deals with T1, GST-SicA (Salmonella enterica serovar Typhimurium, UniProt P69066 1-165).
T1 construct: SicA, the chaperone for SipC, Salmonella enterica serovar Typhimurium; source: GST-tagged recombinant protein, purified
The assay is described as follows: pull-down; purified His-SipC-N and derivatives immobilised on Ni-NTA beads, 1 hr at 4°C; GST or GST-SicA added, 2 hrs at 4°C; washed four times in PBS with 1% NP-40; blotted with anti-His and anti-GST. The note with it: both partners purified.

T1 sequence (P69066 whole entry): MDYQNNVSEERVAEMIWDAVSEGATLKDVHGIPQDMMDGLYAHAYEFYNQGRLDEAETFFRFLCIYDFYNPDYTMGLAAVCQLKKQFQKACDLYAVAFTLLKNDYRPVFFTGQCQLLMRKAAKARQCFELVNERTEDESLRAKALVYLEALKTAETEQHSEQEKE

B1: His-SipC-N (domain or fragment)
chain: MLISNVGINPAAYLNNHSVENSSQTASQSVSAKDILNSIGISSSKVSDLGLSPTLSAPAPGVLTQTPGTITSFLKASIQNTDMNQDLNALANNVTTKANEVVQTQLREQQAEVGKFFDIS
notes: N-terminal region of SipC of Salmonella enterica serovar Typhimurium; also called wild-type SipC-N; source: His-tagged recombinant protein, purified
Take B1: the binding result is given as “binds”.
